Assay results taken from patent publication US20260217835A1 (published 2026).

Biological target: T1, human neonatal Fc receptor (FcRn) (human, UniProt P55899 24-290)
T1 construct: also called human FcRn
Assay: SPR (Biacore T200), antibody captured on Protein L, human FcRn as analyte, pH 6.0, 25 C, steady-state model

B1: Sample No. 87, IgG1 antibody with T366W/L368A/Y407V (heavy chain SEQ ID NO: 26, light chain SEQ ID NO: 61) (antibody)
heavy: QVQLQESGPGLVRPSQTLSLTCTVSGYSITSDHAWSWVRQPPGRGLEWIGYISYSGITTYNPSLKSRVTMLRDTSKNQFSLRLSSVTAADTAVYYCARSLARTTAMDYWGQGSLVTVSSASTKGPSVFPLAPSSKSTSGGTAALGCLVKDYFPEPVTVSWNSGALTSGVHTFPAVLQSSGLYSLSSVVTVPSSSLGTQTYICNVNHKPSNTKVDKRVEPKSCDKTHTCPPCPAPELLGGPSVFLFPPKPKDTLMISRTPEVTCVVVDVSHEDPEVKFNWYVDGVEVHNAKTKPREEQYNSTYRVVSVLTVLHQDWLNGKEYKCKVSNKALPAPIEKTISKAKGQPREPQVYTLPPSREEMTKNQVSLWCAVKGFYPSDIAVEWESNGQPENNYKTTPPVLDSDGSFFLVSKLTVDKSRWQQGNVFSCSVMHEALHNHYTQKSLSLSP
light: not shown
- Kd: 1730 nM

B2: Sample No. 92, IgG1 antibody with Q347R/K360E/D399V/F405T/K409W (heavy chain SEQ ID NO: 31, light chain SEQ ID NO: 61) (antibody)
heavy: QVQLQESGPGLVRPSQTLSLTCTVSGYSITSDHAWSWVRQPPGRGLEWIGYISYSGITTYNPSLKSRVTMLRDTSKNQFSLRLSSVTAADTAVYYCARSLARTTAMDYWGQGSLVTVSSASTKGPSVFPLAPSSKSTSGGTAALGCLVKDYFPEPVTVSWNSGALTSGVHTFPAVLQSSGLYSLSSVVTVPSSSLGTQTYICNVNHKPSNTKVDKRVEPKSCDKTHTCPPCPAPELLGGPSVFLFPPKPKDTLMISRTPEVTCVVVDVSHEDPEVKFNWYVDGVEVHNAKTKPREEQYNSTYRVVSVLTVLHQDWLNGKEYKCKVSNKALPAPIEKTISKAKGQPREPRVYTLPPSREEMTENQVSLTCLVKGFYPSDIAVEWESNGQPENNYKTTPPVLVSDGSFTLYSWLTVDKSRWQQGNVFSCSVMHEALHNHYTQKSLSLSP
light: not shown
- Kd: 1860 nM

B3: Sample No. 97, IgG1 antibody with E356K/D399K/K409E/K439E (heavy chain SEQ ID NO: 36, light chain SEQ ID NO: 61) (antibody)
heavy: QVQLQESGPGLVRPSQTLSLTCTVSGYSITSDHAWSWVRQPPGRGLEWIGYISYSGITTYNPSLKSRVTMLRDTSKNQFSLRLSSVTAADTAVYYCARSLARTTAMDYWGQGSLVTVSSASTKGPSVFPLAPSSKSTSGGTAALGCLVKDYFPEPVTVSWNSGALTSGVHTFPAVLQSSGLYSLSSVVTVPSSSLGTQTYICNVNHKPSNTKVDKRVEPKSCDKTHTCPPCPAPELLGGPSVFLFPPKPKDTLMISRTPEVTCVVVDVSHEDPEVKFNWYVDGVEVHNAKTKPREEQYNSTYRVVSVLTVLHQDWLNGKEYKCKVSNKALPAPIEKTISKAKGQPREPQVYTLPPSRKEMTKNQVSLTCLVKGFYPSDIAVEWESNGQPENNYKTTPPVLKSDGSFFLYSELTVDKSRWQQGNVFSCSVMHEALHNHYTQESLSLSP
light: not shown
- Kd: 1740 nM

B4: Sample No. 100, IgG1 antibody with Q347E/S354Y/T366Y/Y407T (heavy chain SEQ ID NO: 39, light chain SEQ ID NO: 61) (antibody)
heavy: QVQLQESGPGLVRPSQTLSLTCTVSGYSITSDHAWSWVRQPPGRGLEWIGYISYSGITTYNPSLKSRVTMLRDTSKNQFSLRLSSVTAADTAVYYCARSLARTTAMDYWGQGSLVTVSSASTKGPSVFPLAPSSKSTSGGTAALGCLVKDYFPEPVTVSWNSGALTSGVHTFPAVLQSSGLYSLSSVVTVPSSSLGTQTYICNVNHKPSNTKVDKRVEPKSCDKTHTCPPCPAPELLGGPSVFLFPPKPKDTLMISRTPEVTCVVVDVSHEDPEVKFNWYVDGVEVHNAKTKPREEQYNSTYRVVSVLTVLHQDWLNGKEYKCKVSNKALPAPIEKTISKAKGQPREPEVYTLPPYREEMTKNQVSLYCLVKGFYPSDIAVEWESNGQPENNYKTTPPVLDSDGSFFLTSKLTVDKSRWQQGNVFSCSVMHEALHNHYTQKSLSLSP
light: not shown
- Kd: 1760 nM

B5: Sample No. 102, IgG1 antibody with K392L/T394W/F405A/Y407V (heavy chain SEQ ID NO: 41, light chain SEQ ID NO: 61) (antibody)
heavy: QVQLQESGPGLVRPSQTLSLTCTVSGYSITSDHAWSWVRQPPGRGLEWIGYISYSGITTYNPSLKSRVTMLRDTSKNQFSLRLSSVTAADTAVYYCARSLARTTAMDYWGQGSLVTVSSASTKGPSVFPLAPSSKSTSGGTAALGCLVKDYFPEPVTVSWNSGALTSGVHTFPAVLQSSGLYSLSSVVTVPSSSLGTQTYICNVNHKPSNTKVDKRVEPKSCDKTHTCPPCPAPELLGGPSVFLFPPKPKDTLMISRTPEVTCVVVDVSHEDPEVKFNWYVDGVEVHNAKTKPREEQYNSTYRVVSVLTVLHQDWLNGKEYKCKVSNKALPAPIEKTISKAKGQPREPQVYTLPPSREEMTKNQVSLTCLVKGFYPSDIAVEWESNGQPENNYLTWPPVLDSDGSFALVSKLTVDKSRWQQGNVFSCSVMHEALHNHYTQKSLSLSP
light: not shown
- Kd: 1690 nM

B6: Sample No. 109, IgG1 antibody with E356K/K392D/D399K/K439E (heavy chain SEQ ID NO: 48, light chain SEQ ID NO: 61) (antibody)
heavy: QVQLQESGPGLVRPSQTLSLTCTVSGYSITSDHAWSWVRQPPGRGLEWIGYISYSGITTYNPSLKSRVTMLRDTSKNQFSLRLSSVTAADTAVYYCARSLARTTAMDYWGQGSLVTVSSASTKGPSVFPLAPSSKSTSGGTAALGCLVKDYFPEPVTVSWNSGALTSGVHTFPAVLQSSGLYSLSSVVTVPSSSLGTQTYICNVNHKPSNTKVDKRVEPKSCDKTHTCPPCPAPELLGGPSVFLFPPKPKDTLMISRTPEVTCVVVDVSHEDPEVKFNWYVDGVEVHNAKTKPREEQYNSTYRVVSVLTVLHQDWLNGKEYKCKVSNKALPAPIEKTISKAKGQPREPQVYTLPPSRKEMTKNQVSLTCLVKGFYPSDIAVEWESNGQPENNYDTTPPVLKSDGSFFLYSKLTVDKSRWQQGNVFSCSVMHEALHNHYTQESLSLSP
light: not shown
- Kd: 1690 nM

B7: Sample No. 111, IgG1 antibody with K392D/D399K/K409D (heavy chain SEQ ID NO: 50, light chain SEQ ID NO: 61) (antibody)
heavy: QVQLQESGPGLVRPSQTLSLTCTVSGYSITSDHAWSWVRQPPGRGLEWIGYISYSGITTYNPSLKSRVTMLRDTSKNQFSLRLSSVTAADTAVYYCARSLARTTAMDYWGQGSLVTVSSASTKGPSVFPLAPSSKSTSGGTAALGCLVKDYFPEPVTVSWNSGALTSGVHTFPAVLQSSGLYSLSSVVTVPSSSLGTQTYICNVNHKPSNTKVDKRVEPKSCDKTHTCPPCPAPELLGGPSVFLFPPKPKDTLMISRTPEVTCVVVDVSHEDPEVKFNWYVDGVEVHNAKTKPREEQYNSTYRVVSVLTVLHQDWLNGKEYKCKVSNKALPAPIEKTISKAKGQPREPQVYTLPPSREEMTKNQVSLTCLVKGFYPSDIAVEWESNGQPENNYDTTPPVLKSDGSFFLYSDLTVDKSRWQQGNVFSCSVMHEALHNHYTQKSLSLSP
light: not shown
- Kd: 1530 nM

B8: Sample No. 112, IgG1 antibody with Y349C/E357C/K392D/D399K (heavy chain SEQ ID NO: 51, light chain SEQ ID NO: 61) (antibody)
heavy: QVQLQESGPGLVRPSQTLSLTCTVSGYSITSDHAWSWVRQPPGRGLEWIGYISYSGITTYNPSLKSRVTMLRDTSKNQFSLRLSSVTAADTAVYYCARSLARTTAMDYWGQGSLVTVSSASTKGPSVFPLAPSSKSTSGGTAALGCLVKDYFPEPVTVSWNSGALTSGVHTFPAVLQSSGLYSLSSVVTVPSSSLGTQTYICNVNHKPSNTKVDKRVEPKSCDKTHTCPPCPAPELLGGPSVFLFPPKPKDTLMISRTPEVTCVVVDVSHEDPEVKFNWYVDGVEVHNAKTKPREEQYNSTYRVVSVLTVLHQDWLNGKEYKCKVSNKALPAPIEKTISKAKGQPREPQVCTLPPSRECMTKNQVSLTCLVKGFYPSDIAVEWESNGQPENNYDTTPPVLKSDGSFFLYSKLTVDKSRWQQGNVFSCSVMHEALHNHYTQKSLSLSP
light: not shown
- Kd: 1570 nM

B9: Sample No. 116, IgG1 antibody with E345R/Q347R/K360D/T366V/D399M/Y407A/K409V (heavy chain SEQ ID NO: 55, light chain SEQ ID NO: 61) (antibody)
heavy: QVQLQESGPGLVRPSQTLSLTCTVSGYSITSDHAWSWVRQPPGRGLEWIGYISYSGITTYNPSLKSRVTMLRDTSKNQFSLRLSSVTAADTAVYYCARSLARTTAMDYWGQGSLVTVSSASTKGPSVFPLAPSSKSTSGGTAALGCLVKDYFPEPVTVSWNSGALTSGVHTFPAVLQSSGLYSLSSVVTVPSSSLGTQTYICNVNHKPSNTKVDKRVEPKSCDKTHTCPPCPAPELLGGPSVFLFPPKPKDTLMISRTPEVTCVVVDVSHEDPEVKFNWYVDGVEVHNAKTKPREEQYNSTYRVVSVLTVLHQDWLNGKEYKCKVSNKALPAPIEKTISKAKGQPRRPRVYTLPPSREEMTDNQVSLVCLVKGFYPSDIAVEWESNGQPENNYKTTPPVLMSDGSFFLASVLTVDKSRWQQGNVFSCSVMHEALHNHYTQKSLSLSP
light: not shown
- Kd: 1780 nM

B10: Sample No. 117, IgG1 antibody with E356K/K392D/D399K/K409D (heavy chain SEQ ID NO: 56, light chain SEQ ID NO: 61) (antibody)
heavy: QVQLQESGPGLVRPSQTLSLTCTVSGYSITSDHAWSWVRQPPGRGLEWIGYISYSGITTYNPSLKSRVTMLRDTSKNQFSLRLSSVTAADTAVYYCARSLARTTAMDYWGQGSLVTVSSASTKGPSVFPLAPSSKSTSGGTAALGCLVKDYFPEPVTVSWNSGALTSGVHTFPAVLQSSGLYSLSSVVTVPSSSLGTQTYICNVNHKPSNTKVDKRVEPKSCDKTHTCPPCPAPELLGGPSVFLFPPKPKDTLMISRTPEVTCVVVDVSHEDPEVKFNWYVDGVEVHNAKTKPREEQYNSTYRVVSVLTVLHQDWLNGKEYKCKVSNKALPAPIEKTISKAKGQPREPQVYTLPPSRKEMTKNQVSLTCLVKGFYPSDIAVEWESNGQPENNYDTTPPVLKSDGSFFLYSDLTVDKSRWQQGNVFSCSVMHEALHNHYTQKSLSLSP
light: not shown
- Kd: 1590 nM

B11: Sample No. 119, IgG1 antibody with E345R/K360E/D399M/Y407A/K409V (heavy chain SEQ ID NO: 58, light chain SEQ ID NO: 61) (antibody)
heavy: QVQLQESGPGLVRPSQTLSLTCTVSGYSITSDHAWSWVRQPPGRGLEWIGYISYSGITTYNPSLKSRVTMLRDTSKNQFSLRLSSVTAADTAVYYCARSLARTTAMDYWGQGSLVTVSSASTKGPSVFPLAPSSKSTSGGTAALGCLVKDYFPEPVTVSWNSGALTSGVHTFPAVLQSSGLYSLSSVVTVPSSSLGTQTYICNVNHKPSNTKVDKRVEPKSCDKTHTCPPCPAPELLGGPSVFLFPPKPKDTLMISRTPEVTCVVVDVSHEDPEVKFNWYVDGVEVHNAKTKPREEQYNSTYRVVSVLTVLHQDWLNGKEYKCKVSNKALPAPIEKTISKAKGQPRRPQVYTLPPSREEMTENQVSLTCLVKGFYPSDIAVEWESNGQPENNYKTTPPVLMSDGSFFLASVLTVDKSRWQQGNVFSCSVMHEALHNHYTQKSLSLSP
light: not shown
- Kd: 1610 nM

B12: Sample No. 121, IgG1 antibody with T350V/L351Y/T366L/K392L/T394W/F405A/Y407V (heavy chain SEQ ID NO: 60, light chain SEQ ID NO: 61) (antibody)
heavy: QVQLQESGPGLVRPSQTLSLTCTVSGYSITSDHAWSWVRQPPGRGLEWIGYISYSGITTYNPSLKSRVTMLRDTSKNQFSLRLSSVTAADTAVYYCARSLARTTAMDYWGQGSLVTVSSASTKGPSVFPLAPSSKSTSGGTAALGCLVKDYFPEPVTVSWNSGALTSGVHTFPAVLQSSGLYSLSSVVTVPSSSLGTQTYICNVNHKPSNTKVDKRVEPKSCDKTHTCPPCPAPELLGGPSVFLFPPKPKDTLMISRTPEVTCVVVDVSHEDPEVKFNWYVDGVEVHNAKTKPREEQYNSTYRVVSVLTVLHQDWLNGKEYKCKVSNKALPAPIEKTISKAKGQPREPQVYVYPPSREEMTKNQVSLLCLVKGFYPSDIAVEWESNGQPENNYLTWPPVLDSDGSFALVSKLTVDKSRWQQGNVFSCSVMHEALHNHYTQKSLSLSP
light: not shown
- Kd: 1730 nM
